Test results: article PMC9820295

Key:
[1] = target: DgDps1 (Dgeo_0281) (Deinococcus geothermalis) (UniProt Q1J1Q0); experiment: SEC; HiLoad 16/600 Superdex 75 prep grade; 25 mM Tris-HCl pH 7.5, 150 mM NaCl; size markers ferritin 440 kDa, conalbumin 75 kDa, ovalbumin 43 kDa, anhydrase 29 kDa; also run with 1 mM Fe2+ or Fe3+
[2] = test system: DgDps1 (Dgeo_0281) (Deinococcus geothermalis); experiment: EMSA; conditions: EMSA 1x (from 5x stock): 20 mM HEPES pH 7.2, 32 mM KCl, 0.1 mM EDTA, 10% glycerol, 70 ng/uL BSA, 8 ng/uL poly(dI-dC), 2.5 mM DTT; 37 C 30 min; 6% native PAGE …
[3] = test system: Dgeo_0257 (putative Dps, DgDps3) (Deinococcus geothermalis); experiment: EMSA; conditions: no added metal; half-maximal shift, fragment not specified; EMSA 1x (from 5x stock): 20 mM HEPES pH 7.2, 32 mM KCl, 0.1 mM EDTA, 10% glycerol, 70 ng/uL BSA, 8 ng/uL poly(dI-dC), 2.5 mM DTT; 37 C 30 min; 6% native PAGE …

| Substance | stoichiometry N [1] | Kd [2] | Kd [3] |
| --- | --- | --- | --- |
| DgDps1 (Dgeo_0281) (from UniProt Q1J1Q0 1-222) (natural protein) | 2 |  |  |
| Dgeo_2112 promoter region |  | > 40 µM | < 4 µM |
| Dgeo_2112 ORF region |  | > 40 µM | < 4 µM |
